# T1: PUF4 RNA-binding domain (Saccharomyces cerevisiae, UniProt P25339 537-888)
# T1 sequence: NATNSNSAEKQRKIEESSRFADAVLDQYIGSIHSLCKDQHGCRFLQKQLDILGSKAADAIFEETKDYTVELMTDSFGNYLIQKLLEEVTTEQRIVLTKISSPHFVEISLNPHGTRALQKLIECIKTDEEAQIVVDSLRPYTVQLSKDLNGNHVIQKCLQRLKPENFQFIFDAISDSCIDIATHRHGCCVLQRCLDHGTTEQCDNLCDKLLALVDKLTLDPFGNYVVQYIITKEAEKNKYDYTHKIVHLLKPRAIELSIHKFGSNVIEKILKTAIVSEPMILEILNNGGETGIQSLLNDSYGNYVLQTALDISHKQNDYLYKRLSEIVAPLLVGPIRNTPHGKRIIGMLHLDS
# Target: T1, PUF4 RNA-binding domain
# Assay: Mg; RNA-MaP; 20 mM Na-HEPES pH 7.4, 30 mM KOAc, 0.75 mM MgCl2, 0.1% Tween-20, 5% glycerol, 0.1 mg/mL BSA, 2 mM DTT; 25 C; 0.0125-409.6 nM protein
# Settings: tags: N-His6-TEV cleaved; C-SNAP kept, Cy3B-labelled; label: tethered on chip by stalled RNA polymerase
row,Binder,Kd [nM]
1,UCUCUUGGUGUAUAUAAUUCUCUU (ssRNA) [Id_ii_S1_P3E.2_K3.1_C3.2_[C-2G]_[T-1G]_H3.1_A3.1_F3.1_T3.2_[T9A]_[A10T]],16.3
2,UCUCUUGGUGUAUAUAUGUCUCUU (ssRNA) [Id_ii_S1_P3E.2_K3.1_C3.2_[C-2G]_[T-1G]_H3.1_A3.1_F3.1_T3.2_[A10G]],16.4
3,Id_i_S4_P3E.2_K3.1_C3.2_[C-2T]_[T-1G]_H3.1_A3.1_F3.1_T3.2 (ssRNA) RNA: UUUGACAACUGAUCGUUCUUUCUUGUGUAUAUAUAUUCUUUCUCGAUCAGUUGUCUUU,1.47
4,Id_i_S4_P3E.3_K3.2_C3.2_[C-2T]_[T-1C]_H3.2_A3.1_F3.1_T3.2 (ssRNA) RNA: UUUGACAACUGAUCGUUCUUUCUUCUAUAUAUAUAUUCUUUCUCGAUCAGUUGUCUUU,68.1
5,Id_i_S4_P3E.4_K3.3_C3.2_[C-2T]_[T-1C]_H3.3_A3.1_F3.1_T3.2 (ssRNA) RNA: UUUGACAACUGAUCGUUCUUUCUUCACACUAUAUAUUCUUUCUCGAUCAGUUGUCUUU,202
6,Id_i_S4_P3E.4_K3.3_C3.2_[C-2A]_[T-1C]_H3.3_A3.1_F3.1_T3.2 (ssRNA) RNA: UUUGACAACUGAUCGUUCUUUCUACACACUAUAUAUUCUUUCUCGAUCAGUUGUCUUU,295
7,Id_ii_S4_P3E.4_K3.3_C3.2_[C-2G]_[T-1C]_H3.3_A3.1_F3.1_T3.2 (ssRNA) RNA: UUUGACAACUGAUCGUUCUUUCUGCACACUAUAUAUUCUUUCUCGAUCAGUUGUCUUU,30.3
8,Id_i_S4_P3E.3_K3.2_C3.2_[C-2T]_[T-1G]_H3.2_A3.1_F3.1_T3.2 (ssRNA) RNA: UUUGACAACUGAUCGUUCUUUCUUGUAUAUAUAUAUUCUUUCUCGAUCAGUUGUCUUU,4.75
9,Id_i_S4_P3E.2_K3.1_C3.2_[C-2T]_[T-1A]_H3.1_A3.1_F3.1_T3.2 (ssRNA) RNA: UUUGACAACUGAUCGUUCUUUCUUAUGUAUAUAUAUUCUUUCUCGAUCAGUUGUCUUU,4.77
10,Id_i_S4_P3E.2_K3.1_C3.2_[C-2T]_[T-1C]_H3.1_A3.1_F3.1_T3.2 (ssRNA) RNA: UUUGACAACUGAUCGUUCUUUCUUCUGUAUAUAUAUUCUUUCUCGAUCAGUUGUCUUU,0.82
11,UCUCUUCGUUUAUUAUCUCUU (ssRNA) [Ib_S1_P4E.1_K4.1_C4.1_H4.1_[T1C]_[A4T]_A4.1_F4.1_T4.1],> 2300
12,ACAAACCGGUAUAUAUAUAACAAAC (ssRNA) [Id_i_S3_P3E.6_K3.2_C3.3_[T-3C]_[C-2G]_[T-1G]_H3.2_A3.1_F3.1_T3.2],1060
13,UCUCUUAGCAUAUUAUCUCUU (ssRNA) [Ib_S1_P4E.1_K4.1_C4.1_H4.1_[T1A]_[T3C]_A4.1_F4.1_T4.1],1930
14,Id_i_S2_P3E.7_K3.3_C3.3_[T-3C]_[C-2A]_[T-1A]_H3.3_A3.1_F3.1_T3.2 (ssRNA) RNA: UUUGAUUAAUAUGAUAUCGUUCUUUCUCAAACACUAUAUAUUCUUUCUCGAUAUCAUAUUAAUCUUU,222
15,Id_i_S2_P3E.7_K3.3_C3.3_[T-3A]_[C-2T]_[T-1G]_H3.3_A3.1_F3.1_T3.2 (ssRNA) RNA: UUUGAUUAAUAUGAUAUCGUUCUUUCUAUGACACUAUAUAUUCUUUCUCGAUAUCAUAUUAAUCUUU,597
16,Id_i_S2_P3E.7_K3.3_C3.3_[T-3A]_[C-2G]_[T-1C]_H3.3_A3.1_F3.1_T3.2 (ssRNA) RNA: UUUGAUUAAUAUGAUAUCGUUCUUUCUAGCACACUAUAUAUUCUUUCUCGAUAUCAUAUUAAUCUUU,429
17,Id_i_S2_P3E.7_K3.3_C3.3_[T-3A]_[C-2T]_[T-1A]_H3.3_A3.1_F3.1_T3.2 (ssRNA) RNA: UUUGAUUAAUAUGAUAUCGUUCUUUCUAUAACACUAUAUAUUCUUUCUCGAUAUCAUAUUAAUCUUU,708
18,UCUCUUAAUAUAUUAUCUCUU (ssRNA) [Ib_S1_P4E.1_K4.1_C4.1_H4.1_[T1A]_[G2A]_A4.1_F4.1_T4.1],564
19,ACAAACGCACACUAUAUAACAAAC (ssRNA) [Id_ii_S3_P3E.4_K3.3_C3.2_[C-2G]_[T-1C]_H3.3_A3.1_F3.1_T3.2],1830
20,UCUCUUCAUAUAUUAUCUCUU (ssRNA) [Ib_S1_P4E.1_K4.1_C4.1_H4.1_[T1C]_[G2A]_A4.1_F4.1_T4.1],487
21,ACAAACAGUAUAUAUAUAACAAAC (ssRNA) [Id_i_S3_P3E.3_K3.2_C3.2_[C-2A]_[T-1G]_H3.2_A3.1_F3.1_T3.2],385
22,ACAAACCUCUAUAUAUAUAACAAAC (ssRNA) [Id_i_S3_P3E.6_K3.2_C3.3_[T-3C]_[C-2T]_[T-1C]_H3.2_A3.1_F3.1_T3.2],219
23,Id_i_S4_P3E.5_K3.1_C3.3_[T-3C]_[C-2G]_[T-1C]_H3.1_A3.1_F3.1_T3.2 (ssRNA) RNA: UUUGACAACUGAUCGUUCUUUCUCGCUGUAUAUAUAUUCUUUCUCGAUCAGUUGUCUUU,1.51
24,Id_i_S4_P3E.6_K3.2_C3.3_[T-3C]_[C-2T]_[T-1G]_H3.2_A3.1_F3.1_T3.2 (ssRNA) RNA: UUUGACAACUGAUCGUUCUUUCUCUGUAUAUAUAUAUUCUUUCUCGAUCAGUUGUCUUU,1.92
25,Id_i_S4_P3E.5_K3.1_C3.3_[T-3C]_[C-2T]_[T-1G]_H3.1_A3.1_F3.1_T3.2 (ssRNA) RNA: UUUGACAACUGAUCGUUCUUUCUCUGUGUAUAUAUAUUCUUUCUCGAUCAGUUGUCUUU,1.5
26,Id_i_S4_P3E.7_K3.3_C3.3_[T-3C]_[C-2A]_[T-1A]_H3.3_A3.1_F3.1_T3.2 (ssRNA) RNA: UUUGACAACUGAUCGUUCUUUCUCAAACACUAUAUAUUCUUUCUCGAUCAGUUGUCUUU,110
27,Id_i_S4_P3E.7_K3.3_C3.3_[T-3C]_[C-2A]_[T-1G]_H3.3_A3.1_F3.1_T3.2 (ssRNA) RNA: UUUGACAACUGAUCGUUCUUUCUCAGACACUAUAUAUUCUUUCUCGAUCAGUUGUCUUU,572

row,Binder,Kd [nM]
1,Id_i_S4_P3E.5_K3.1_C3.3_[T-3A]_[C-2T]_[T-1C]_H3.1_A3.1_F3.1_T3.2 (ssRNA) RNA: UUUGACAACUGAUCGUUCUUUCUAUCUGUAUAUAUAUUCUUUCUCGAUCAGUUGUCUUU,1.98
2,Id_i_S4_P3E.7_K3.3_C3.3_[T-3A]_[C-2A]_[T-1A]_H3.3_A3.1_F3.1_T3.2 (ssRNA) RNA: UUUGACAACUGAUCGUUCUUUCUAAAACACUAUAUAUUCUUUCUCGAUCAGUUGUCUUU,451
3,Id_i_S4_P3E.6_K3.2_C3.3_[T-3G]_[C-2G]_[T-1C]_H3.2_A3.1_F3.1_T3.2 (ssRNA) RNA: UUUGACAACUGAUCGUUCUUUCUGGCUAUAUAUAUAUUCUUUCUCGAUCAGUUGUCUUU,1420
4,Id_i_S4_P3E.6_K3.2_C3.3_[T-3C]_[C-2T]_[T-1A]_H3.2_A3.1_F3.1_T3.2 (ssRNA) RNA: UUUGACAACUGAUCGUUCUUUCUCUAUAUAUAUAUAUUCUUUCUCGAUCAGUUGUCUUU,500
5,Id_i_S4_P3E.7_K3.3_C3.3_[T-3A]_[C-2T]_[T-1C]_H3.3_A3.1_F3.1_T3.2 (ssRNA) RNA: UUUGACAACUGAUCGUUCUUUCUAUCACACUAUAUAUUCUUUCUCGAUCAGUUGUCUUU,346
6,Id_i_S4_P3E.6_K3.2_C3.3_[T-3A]_[C-2G]_[T-1C]_H3.2_A3.1_F3.1_T3.2 (ssRNA) RNA: UUUGACAACUGAUCGUUCUUUCUAGCUAUAUAUAUAUUCUUUCUCGAUCAGUUGUCUUU,537
7,Id_i_S4_P3E.6_K3.2_C3.3_[T-3C]_[C-2A]_[T-1C]_H3.2_A3.1_F3.1_T3.2 (ssRNA) RNA: UUUGACAACUGAUCGUUCUUUCUCACUAUAUAUAUAUUCUUUCUCGAUCAGUUGUCUUU,56.5
8,Id_i_S4_P3E.7_K3.3_C3.3_[T-3C]_[C-2T]_[T-1A]_H3.3_A3.1_F3.1_T3.2 (ssRNA) RNA: UUUGACAACUGAUCGUUCUUUCUCUAACACUAUAUAUUCUUUCUCGAUCAGUUGUCUUU,113
9,Id_i_S4_P3E.7_K3.3_C3.3_[T-3A]_[C-2T]_[T-1A]_H3.3_A3.1_F3.1_T3.2 (ssRNA) RNA: UUUGACAACUGAUCGUUCUUUCUAUAACACUAUAUAUUCUUUCUCGAUCAGUUGUCUUU,571
10,Id_i_S4_P3E.7_K3.3_C3.3_[T-3C]_[C-2T]_[T-1G]_H3.3_A3.1_F3.1_T3.2 (ssRNA) RNA: UUUGACAACUGAUCGUUCUUUCUCUGACACUAUAUAUUCUUUCUCGAUCAGUUGUCUUU,424
11,ACAAACAGACACUAUAUAACAAAC (ssRNA) [Id_ii_S3_P3E.4_K3.3_C3.2_[C-2A]_[T-1G]_H3.3_A3.1_F3.1_T3.2],> 2300
12,ACAAACAGGUAUAUAUAUAACAAAC (ssRNA) [Id_i_S3_P3E.6_K3.2_C3.3_[T-3A]_[C-2G]_[T-1G]_H3.2_A3.1_F3.1_T3.2],566
13,UCUCUUGGUGUAUAUAGUUCUCUU (ssRNA) [Id_ii_S1_P3E.2_K3.1_C3.2_[C-2G]_[T-1G]_H3.1_A3.1_F3.1_T3.2_[T9G]_[A10T]],6.96
14,ACAAACAUCACACUAUAUAACAAAC (ssRNA) [Id_i_S3_P3E.7_K3.3_C3.3_[T-3A]_[C-2T]_[T-1C]_H3.3_A3.1_F3.1_T3.2],2250
15,ACAAACCAAACACUAUAUAACAAAC (ssRNA) [Id_i_S3_P3E.7_K3.3_C3.3_[T-3C]_[C-2A]_[T-1A]_H3.3_A3.1_F3.1_T3.2],> 2300
16,UCUCUUCGUGUAUUAUCUCUU (ssRNA) [Ib_S1_P4E.1_K4.1_C4.1_H4.1_[T1C]_[A4G]_A4.1_F4.1_T4.1],33.2
17,ACAAACGGCUAUAUAUAUAACAAAC (ssRNA) [Id_i_S3_P3E.6_K3.2_C3.3_[T-3G]_[C-2G]_[T-1C]_H3.2_A3.1_F3.1_T3.2],1360
18,UCUCUUUGUAUGUUAUCUCUU (ssRNA) [Ic_S1_P4E.1_K4.1_C4.1_H4.1_A4.1_[A6G]_F4.1_T4.1],4.82
19,ACAAACAUAACACUAUAUAACAAAC (ssRNA) [Id_i_S3_P3E.7_K3.3_C3.3_[T-3A]_[C-2T]_[T-1A]_H3.3_A3.1_F3.1_T3.2],> 2300
20,ACAAACAAUAUAUAUAUAACAAAC (ssRNA) [Id_ii_S3_P3E.3_K3.2_C3.2_[C-2A]_[T-1A]_H3.2_A3.1_F3.1_T3.2],531
21,ACAAACGGAACACUAUAUAACAAAC (ssRNA) [Id_i_S3_P3E.7_K3.3_C3.3_[T-3G]_[C-2G]_[T-1A]_H3.3_A3.1_F3.1_T3.2],1440
22,ACAAACACACACUAUAUAACAAAC (ssRNA) [Id_i_S3_P3E.4_K3.3_C3.2_[C-2A]_[T-1C]_H3.3_A3.1_F3.1_T3.2],> 2300
23,ACAAACAAGUAUAUAUAUAACAAAC (ssRNA) [Id_i_S3_P3E.6_K3.2_C3.3_[T-3A]_[C-2A]_[T-1G]_H3.2_A3.1_F3.1_T3.2],316
24,ACAAACUCACACUAUAUAACAAAC (ssRNA) [Id_i_S3_P3E.4_K3.3_C3.2_[C-2T]_[T-1C]_H3.3_A3.1_F3.1_T3.2],> 2300
25,UCUCUUGGUGUAUAUAUUUCUCUU (ssRNA) [Id_ii_S1_P3E.2_K3.1_C3.2_[C-2G]_[T-1G]_H3.1_A3.1_F3.1_T3.2_[A10T]],15.2
26,ACAAACGGUAUAUAUAUAACAAAC (ssRNA) [Id_ii_S3_P3E.3_K3.2_C3.2_[C-2G]_[T-1G]_H3.2_A3.1_F3.1_T3.2],550
